Test results from publication PMC3699456.
Blank lines part the entries; values can stand above or below the molecule they belong to.

Assays:
[1] = target: solRP105-MD1 complex (mouse) (UniProt O88188); test: SEC; Superdex 200 PC3.2/30; 50 mM Tris-Cl pH 8.0, 300 mM NaCl; 0.05 ml/min; purified solRP105 and purified solRP105-MD1 complex
[2] = target: solRP105-MD1 complex (mouse) (UniProt O88188); test: SEC-MALS; WTC-030S5 column (Wyatt); 50 mM Tris-Cl pH 8.0, 300 mM NaCl; 0.5 ml/min; purified solRP105-MD1 complex
[3] = target: T1, soluble RP105 (extracellular domain of mouse RP105, residues Thr21-Ala630) (mouse); test: as above
T1 sequence (Q62192 whole entry, looked up): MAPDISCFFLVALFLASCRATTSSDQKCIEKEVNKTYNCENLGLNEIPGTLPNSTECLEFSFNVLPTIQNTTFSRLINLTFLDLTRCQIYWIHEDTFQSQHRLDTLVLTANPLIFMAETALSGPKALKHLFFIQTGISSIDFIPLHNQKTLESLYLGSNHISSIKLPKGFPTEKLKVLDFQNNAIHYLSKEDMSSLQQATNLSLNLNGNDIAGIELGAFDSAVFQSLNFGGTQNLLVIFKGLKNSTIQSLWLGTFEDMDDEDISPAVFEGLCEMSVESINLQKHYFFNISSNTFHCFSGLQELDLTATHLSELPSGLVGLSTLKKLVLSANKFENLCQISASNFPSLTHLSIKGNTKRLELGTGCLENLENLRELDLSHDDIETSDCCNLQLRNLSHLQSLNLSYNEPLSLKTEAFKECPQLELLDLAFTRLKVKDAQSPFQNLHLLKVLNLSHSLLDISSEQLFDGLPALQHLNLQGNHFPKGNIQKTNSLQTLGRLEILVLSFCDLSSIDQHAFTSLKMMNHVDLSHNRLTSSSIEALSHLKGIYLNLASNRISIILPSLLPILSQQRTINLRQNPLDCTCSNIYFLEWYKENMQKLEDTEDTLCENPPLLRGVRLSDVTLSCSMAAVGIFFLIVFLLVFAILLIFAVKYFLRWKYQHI

stoichiometry N (RP105-MD1 units per complex) [1]: 2
stoichiometry N (RP105-MD1 units per complex) [2]: 2
Molecule: solRP105-MD1 complex (from UniProt O88188 20-162)

stoichiometry N (MD1 per RP105 (2:2)) [3]: 1
B1: mouse MD1 without its native signal sequence (residues Asp20-Ser162) (natural protein)
chain: DHGSENGWPKHTACNSGGLEVVYQSCDPLQDFGLSIDQCSKQIQSNLNIRFGIILRQDIRKLFLDITLMAKGSSILNYSYPLCEEDQPKFSFCGRRKGEQIYYAGPVNNPGLDVPQGEYQLLLELYNENRATVACANATVTSSAAA
modifications: differential N-glycosylation at Asn96 and Asn156
